In publication PMC10681739, “High-throughput data and modeling reveal insights into the mechanisms of cooperative DNA-binding by transcription factor proteins” one finds binding signal data, which are given here for 39 molecules.

The data set deals with T1, ETS1 (Homo sapiens, UniProt P14921).
T1 sequence: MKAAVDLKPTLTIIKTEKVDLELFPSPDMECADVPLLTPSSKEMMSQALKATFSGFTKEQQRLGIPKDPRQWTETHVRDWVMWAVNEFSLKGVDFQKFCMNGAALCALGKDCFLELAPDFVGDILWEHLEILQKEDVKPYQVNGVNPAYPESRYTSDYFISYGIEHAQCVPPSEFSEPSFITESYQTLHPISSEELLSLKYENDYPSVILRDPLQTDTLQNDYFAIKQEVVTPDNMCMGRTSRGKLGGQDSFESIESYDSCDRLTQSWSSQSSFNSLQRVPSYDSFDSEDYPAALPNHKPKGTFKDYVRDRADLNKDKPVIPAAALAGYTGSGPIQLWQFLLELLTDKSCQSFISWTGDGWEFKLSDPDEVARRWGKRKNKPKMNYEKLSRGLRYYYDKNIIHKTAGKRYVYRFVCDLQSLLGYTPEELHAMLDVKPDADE
Put plainly: gcPBM; 1 nM ETS1. Particulars: tags: N-terminal GST (pDEST15), kept (PMC6008103); label: surface-attached array probe.

B1: Table S2 C row 19 (dsDNA)
DNA 1: GACAAATCAAATGCCACCGCAGAGTTTACTCGAGTT
DNA 2: AACTCGAGTAAACTCTGCGGTGGCATTTGATTTGTC
As for B1, the binding signal was 343 PBM fluorescence, median of replicate spots.

B2: Table S2 C row 160 (dsDNA)
DNA 1: GCCAGCCTGGGCCGGGCCACAAGAACAAGGAATGTT
DNA 2: AACATTCCTTGTTCTTGTGGCCCGGCCCAGGCTGGC
Turning to B2, the binding signal was 322 PBM fluorescence, median of replicate spots.

B3: Table S2 C row 94 (dsDNA)
DNA 1: CCCAAGCCCGCGGGCTGCGGGCGCTGATTGGGCGGC
DNA 2: GCCGCCCAATCAGCGCCCGCAGCCCGCGGGCTTGGG
Regarding B3, the binding signal is 346 PBM fluorescence, median of replicate spots.

B4: Table S2 C row 135 (dsDNA)
DNA 1: GGGTCCCGGGGACCCTGCGGGCTCCGAGTAGTCGTA
DNA 2: TACGACTACTCGGAGCCCGCAGGGTCCCCGGGACCC
With B4, the binding signal was 332 PBM fluorescence, median of replicate spots.

B5: Table S2 B row 1920 (dsDNA)
DNA 1: ACATTCTTCCGGTTGGACCTCCGCGATCAGCGCTGT
DNA 2: ACAGCGCTGATCGCGGAGGTCCAACCGGAAGAATGT
Take B5: the binding signal was 16500 PBM fluorescence, median of replicate spots.

B6: Table S2 C row 185 (dsDNA)
DNA 1: GCAGAAATATGCTGAACCACAACTGAAGGTGGCTGA
DNA 2: TCAGCCACCTTCAGTTGTGGTTCAGCATATTTCTGC
On to B6, for which the binding signal was 345 PBM fluorescence, median of replicate spots.

B7: Table S2 C row 97 (dsDNA)
DNA 1: CGAGGGCGCGCGTCTCGCGGTCCATCCAGCTCAGCA
DNA 2: TGCTGAGCTGGATGGACCGCGAGACGCGCGCCCTCG
B7: the binding signal was 331 PBM fluorescence, median of replicate spots.

B8: Table S2 C row 164 (dsDNA)
DNA 1: GAGCGGAGACAGAACACCGCACACCCAGCGTCCCAA
DNA 2: TTGGGACGCTGGGTGTGCGGTGTTCTGTCTCCGCTC
On to B8, for which the binding signal was 352 PBM fluorescence, median of replicate spots.

B9: Table S2 C row 189 (dsDNA)
DNA 1: CCCTGGGGTCCCTTTGCCGCAGTTCCACATCTGCAG
DNA 2: CTGCAGATGTGGAACTGCGGCAAAGGGACCCCAGGG
Turning to B9, the binding signal is 346 PBM fluorescence, median of replicate spots.

B10: Table S2 C row 95 (dsDNA)
DNA 1: TGTCTCATCAGCCAGGCCACAAACGCGATGTTTACA
DNA 2: TGTAAACATCGCGTTTGTGGCCTGGCTGATGAGACA
B10: the binding signal was 338 PBM fluorescence, median of replicate spots.

B11: Table S2 C row 165 (dsDNA)
DNA 1: ATCAGCGTGGCTGCTGCCGCAGAACAAGCCACGCTT
DNA 2: AAGCGTGGCTTGTTCTGCGGCAGCAGCCACGCTGAT
In the case of B11, the binding signal is 345 PBM fluorescence, median of replicate spots.

B12: Table S2 C row 142 (dsDNA)
DNA 1: CCTAAGAGTAAGCTAACCACAGGGATTCTTTTGTAG
DNA 2: CTACAAAAGAATCCCTGTGGTTAGCTTACTCTTAGG
Take B12: the binding signal is 351 PBM fluorescence, median of replicate spots.

B13: Table S2 C row 139 (dsDNA)
DNA 1: GGAGCTGCTCCAGGCTGCGGTGGGATCAAAGCTACC
DNA 2: GGTAGCTTTGATCCCACCGCAGCCTGGAGCAGCTCC
For the molecule B13, the binding signal is 316 PBM fluorescence, median of replicate spots.

B14: Table S2 C row 61 (dsDNA)
DNA 1: TGCTCTCGGCCTGGCTGTGGGCGGGTGGCCATCAGT
DNA 2: ACTGATGGCCACCCGCCCACAGCCAGGCCGAGAGCA
Take B14: the binding signal is 327 PBM fluorescence, median of replicate spots.

B15: Table S2 C row 106 (dsDNA)
DNA 1: ATTCACTCATCCCTCACCACAGCCAGCTGCTTGAGA
DNA 2: TCTCAAGCAGCTGGCTGTGGTGAGGGATGAGTGAAT
As to B15, the binding signal is 320 PBM fluorescence, median of replicate spots.

B16: Table S2 C row 188 (dsDNA)
DNA 1: GGAGATAGCCTAGGCTGTGGTTTTTCAGAGAAACCT
DNA 2: AGGTTTCTCTGAAAAACCACAGCCTAGGCTATCTCC
As to B16, the binding signal was 350 PBM fluorescence, median of replicate spots.

B17: Table S2 B row 614 (dsDNA)
DNA 1: GAGGACTTCCGGGTGGGTGTGATATCTACGGGCCCG
DNA 2: CGGGCCCGTAGATATCACACCCACCCGGAAGTCCTC
For the molecule B17, the binding signal was 17700 PBM fluorescence, median of replicate spots.

B18: Table S2 B row 649 (dsDNA)
DNA 1: TTATTTCCGGTGTTGATCTTTTTATTGGTACCAGGC
DNA 2: GCCTGGTACCAATAAAAAGATCAACACCGGAAATAA
Regarding B18, the binding signal is 43000 PBM fluorescence, median of replicate spots.

B19: Table S2 C row 126 (dsDNA)
DNA 1: TCCACGCCCCGGCGCTGCGGGCACCGAGTAAAACGC
DNA 2: GCGTTTTACTCGGTGCCCGCAGCGCCGGGGCGTGGA
For B19, the binding signal is 327 PBM fluorescence, median of replicate spots.

B20: Table S2 C row 111 (dsDNA)
DNA 1: CCAGCTGTACTGAGTTGAGGTTTTTCTGACCCTCAG
DNA 2: CTGAGGGTCAGAAAAACCTCAACTCAGTACAGCTGG
B20: the binding signal was 336 PBM fluorescence, median of replicate spots.

B21: Table S2 C row 30 (dsDNA)
DNA 1: TGAAATTTTTCTTTTTGTGGTCAGTAATCCCAAAAA
DNA 2: TTTTTGGGATTACTGACCACAAAAAGAAAAATTTCA
Take B21: the binding signal is 339 PBM fluorescence, median of replicate spots.

B22: Table S2 B row 703 (dsDNA)
DNA 1: GCCGGGCACTTCCTGTGGAGGCCGAAGCGGGTGCGC
DNA 2: GCGCACCCGCTTCGGCCTCCACAGGAAGTGCCCGGC
With B22, the binding signal is 17200 PBM fluorescence, median of replicate spots.

B23: Table S2 C row 169 (dsDNA)
DNA 1: TGGGCATGCGCGGCGCGCGGTTGGCACTGGCTGCGA
DNA 2: TCGCAGCCAGTGCCAACCGCGCGCCGCGCATGCCCA
Regarding B23, the binding signal was 336 PBM fluorescence, median of replicate spots.

B24: Table S2 C row 8 (dsDNA)
DNA 1: CCACCCGGGGCCTGGACCGCACCACGGTCACTGGCG
DNA 2: CGCCAGTGACCGTGGTGCGGTCCAGGCCCCGGGTGG
For the molecule B24, the binding signal is 316 PBM fluorescence, median of replicate spots.

B25: Table S2 C row 132 (dsDNA)
DNA 1: GGCCTGATAGCAATGGCCACAAACACAGCAAGCCAC
DNA 2: GTGGCTTGCTGTGTTTGTGGCCATTGCTATCAGGCC
Regarding B25, the binding signal was 348 PBM fluorescence, median of replicate spots.

B26: Table S2 C row 9 (dsDNA)
DNA 1: CATGTGAGCGACTGGGCCGCAGCCATCAGCCTCCTG
DNA 2: CAGGAGGCTGATGGCTGCGGCCCAGTCGCTCACATG
As to B26, the binding signal is 350 PBM fluorescence, median of replicate spots.

B27: Table S2 C row 195 (dsDNA)
DNA 1: GCTGCTGACTGCCCCTGAGGTTAGAGATTGACTAGA
DNA 2: TCTAGTCAATCTCTAACCTCAGGGGCAGTCAGCAGC
In the case of B27, the binding signal is 325 PBM fluorescence, median of replicate spots.

B28: Table S2 C row 73 (dsDNA)
DNA 1: GTGGCACCCTCAAGGGCCACAACGGCTGGGTAACCC
DNA 2: GGGTTACCCAGCCGTTGTGGCCCTTGAGGGTGCCAC
For B28, the binding signal is 312 PBM fluorescence, median of replicate spots.

B29: Table S2 C row 193 (dsDNA)
DNA 1: GCTCCTAGATGGCTCTGTGGGCAGGTGCTGGCCAAG
DNA 2: CTTGGCCAGCACCTGCCCACAGAGCCATCTAGGAGC
Regarding B29, the binding signal was 347 PBM fluorescence, median of replicate spots.

B30: Table S2 C row 194 (dsDNA)
DNA 1: TCGGGAACGTGGGGCTGCGGCCGCCCATGGTGCCCC
DNA 2: GGGGCACCATGGGCGGCCGCAGCCCCACGTTCCCGA
As for B30, the binding signal is 335 PBM fluorescence, median of replicate spots.

B31: Table S2 C row 35 (dsDNA)
DNA 1: GTAGCTGTAACTGCCACCGCGATGCCGAAGGCGCCC
DNA 2: GGGCGCCTTCGGCATCGCGGTGGCAGTTACAGCTAC
Regarding B31, the binding signal is 324 PBM fluorescence, median of replicate spots.

B32: Table S2 C row 29 (dsDNA)
DNA 1: TGGCCATGGCCTATGACCGCTATGTGGCCATCTGCT
DNA 2: AGCAGATGGCCACATAGCGGTCATAGGCCATGGCCA
In the case of B32, the binding signal is 340 PBM fluorescence, median of replicate spots.

B33: Table S2 C row 66 (dsDNA)
DNA 1: TCCTGAGTGCTGGGAACCGCAGCGCCACATGCACCC
DNA 2: GGGTGCATGTGGCGCTGCGGTTCCCAGCACTCAGGA
B33: the binding signal was 341 PBM fluorescence, median of replicate spots.

B34: Table S2 C row 17 (dsDNA)
DNA 1: GGGGTGTACACTAGCTGCGGTCTGATTTAGCCCTTT
DNA 2: AAAGGGCTAAATCAGACCGCAGCTAGTGTACACCCC
Consider B34, for which the binding signal was 351 PBM fluorescence, median of replicate spots.

B35: Table S2 C row 140 (dsDNA)
DNA 1: CCACGGCCCGGTGCCTGTGGTCCCCTCCCCGAGGGT
DNA 2: ACCCTCGGGGAGGGGACCACAGGCACCGGGCCGTGG
As to B35, the binding signal is 328 PBM fluorescence, median of replicate spots.

B36: Table S2 C row 45 (dsDNA)
DNA 1: GCGGGGTTGGGAGGCTGCGGGAGTTTGCGTCCCCTC
DNA 2: GAGGGGACGCAAACTCCCGCAGCCTCCCAACCCCGC
As to B36, the binding signal was 339 PBM fluorescence, median of replicate spots.

B37: Table S2 C row 53 (dsDNA)
DNA 1: CCTGGGCTGCAGGCACCCACAGTCCAGAGGCTCAAA
DNA 2: TTTGAGCCTCTGGACTGTGGGTGCCTGCAGCCCAGG
B37: the binding signal was 318 PBM fluorescence, median of replicate spots.

B38: Table S2 B row 126 (dsDNA)
DNA 1: TGGCGCTTCCTGTCGCTACCCCAGCGGCCCAGGGCC
DNA 2: GGCCCTGGGCCGCTGGGGTAGCGACAGGAAGCGCCA
Regarding B38, the binding signal is 18100 PBM fluorescence, median of replicate spots.

B39: Table S2 C row 11 (dsDNA)
DNA 1: AGGTCCTCTGCATTCTGTGGTCACAAACCCAGAGCC
DNA 2: GGCTCTGGGTTTGTGACCACAGAATGCAGAGGACCT
For B39, the binding signal was 347 PBM fluorescence, median of replicate spots.
